Numbering of substitutions follows the chain as printed. Where two headings read alike, the source gives them in different places. Blank lines part the entries; values can stand above or below the binder they belong to.
Experiments:
[1] = molecular target: T1, FcRn-p3 fusion protein (human, UniProt P55899 24-297; P61769 21-119); assay: phage ELISA pH6
T1 construct: baculovirus expressed; coated on ELISA wells; not shown: amino terminal part of bacteriophage p3 protein and CVDE protein

[2] = molecular target: T1, FcRn-p3 fusion protein; assay: phage ELISA pH6 (est.)
[3] = molecular target: T1, FcRn-p3 fusion protein; assay: phage ELISA pH6; remark: listed apart in the source
[4] = molecular target: T1, FcRn-p3 fusion protein; assay: phage ELISA pH6 (est.); remark: listed apart in the source

Ratio/Fc-H [1]: 5.3 fold | Ratio/Fc-WT [2]: 17.1 fold
B1: C6A_60C (other)
chain: CPLCSAPELLGGPSVFLFPPKPKDTLMISRTPEVTCVVVDVSHEDPEVKFNWYVDGVEVHNAKTKPREEQYNSTYRVVSVLTVLHQDWLDGKEYKCKVSNKALPAPIEKTISKAKGQPREPQVYTLPPSRDELTKNQVSLTCLVKGFYPSDIAVEWESNGQPENNYKTTPPVLDSDGSFFLYSKLTVDKSRWQQGNVFSCSVLHEALHYHYTQKSLSLSPGK
notes: EU numbering

Ratio/Fc-H [1]: 9.2 fold | Ratio/Fc-WT [2]: 29.4 fold
B2: C6A_78C (other)
chain: B1 chain with L3P, T31N, D90N, A153V, L203M
notes: EU numbering

Ratio/Fc-H [3]: 1.8 fold | Ratio/FWT [4]: 5.9 fold
B3: T8A_45 (other)
chain: B1 chain with L3P, S5P, D90N, S150A, A153V, L203M
notes: EU numbering

Ratio/Fc-H [3]: 2.5 fold | Ratio/FWT [4]: 7.9 fold
B4: T8A_41 (other)
chain: B1 chain with L3P, S5P, V39E, D90N, P118S, A153V, L203M, Y209S
notes: EU numbering

Ratio/Fc-H [1]: 28.3 fold | Ratio/Fc-WT [2]: 90.5 fold
B5: C6A_78D (other)
chain: B1 chain with L3R, S5P, T31N, D90N, A153V, L203M
notes: EU numbering

Ratio/Fc-H [3]: 2.6 fold | Ratio/FWT [4]: 8.2 fold
B6: T7A_46 (other)
chain: B1 chain with L3P, S5P, V39E, D90N, A153V, G160R, L203M, Y209S
notes: EU numbering

Ratio/Fc-H [3]: 2.9 fold | Ratio/FWT [4]: 9.3 fold
B7: T7A_87 (other)
chain: B1 chain with L3P, Q137R, L203M
notes: EU numbering

Ratio/Fc-H [1]: 18.6 fold | Ratio/Fc-WT [2]: 59.7 fold
B8: C6A_74D (other)
chain: B1 chain with L3R, S5P, V34I, L203M
notes: EU numbering

Ratio/Fc-H [3]: 3.6 fold | Ratio/FWT [4]: 11.6 fold
B9: T7A_49 (other)
chain: B1 chain with L3P, S5T, K95E, Q137R, L203M
notes: EU numbering

Ratio/Fc-H [1]: 5.9 fold | Ratio/Fc-WT [2]: 18.8 fold
B10: T5A_74B (other)
chain: B1 chain with L3P, A105V, N136D, A153V, L203M
notes: EU numbering

Ratio/Fc-H [1]: 9.4 fold | Ratio/Fc-WT [2]: 30.1 fold
B11: C6A_78F (other)
chain: B1 chain with L3R, T31N, D90N, A153V, L203M
notes: EU numbering

Ratio/Fc-H [3]: 3.5 fold | Ratio/FWT [4]: 11.1 fold
B12: T8A_24 (other)
chain: B1 chain with L3P, S5P, V39E, T82P, D90N, A153V, L203M, Y209S
notes: EU numbering

Ratio/Fc-H [3]: 2.9 fold | Ratio/FWT [4]: 9.4 fold
B13: T7A_58 (other)
chain: B1 chain with L3P, S5P, Q137E, L203M
notes: EU numbering

Ratio/Fc-H [3]: 2.5 fold | Ratio/FWT [4]: 8.2 fold
B14: T8A_81 (other)
chain: B1 chain with L3P, S5P, V39A, E157V, L203M
notes: EU numbering

Ratio/Fc-H [1]: 4.8 fold | Ratio/Fc-WT [2]: 15.3 fold
B15: C6A_69D (other)
chain: B1 chain with S5P, T82A, A105V, E157V, N164T, L203M
notes: EU numbering

Ratio/Fc-H [3]: 1.8 fold | Ratio/FWT [4]: 5.6 fold
B16: T8A_34 (other)
chain: B1 chain with L3P, S5P, T82A, T110A, L203M
notes: EU numbering

Ratio/Fc-H [1]: 7.4 fold | Ratio/Fc-WT [2]: 23.8 fold
B17: C6A_60D (other)
chain: B1 chain with L3R
notes: EU numbering

Ratio/Fc-H [3]: 3.6 fold | Ratio/FWT [4]: 11.6 fold
B18: T7A_48 (other)
chain: B1 chain with L3P, S5T, L9R, A105V, L203M
notes: EU numbering

Ratio/Fc-H [3]: 2.5 fold | Ratio/FWT [4]: 8.1 fold
B19: T7A_57 (other)
chain: B1 chain with L3P, S5T, T82A, A105V, Q193E, L203M
notes: EU numbering

Ratio/Fc-H [1]: 14.4 fold | Ratio/Fc-WT [2]: 45.9 fold
B20: C6A_78B (other)
chain: B1 chain with S5P, T31N, D90N, A153V, L203M
notes: EU numbering

Reference: patent USRE46585 (LABORATOIRE FRANCAIS DU FRACTIONNEMENT ET DES …, dated 2017)
